Experimental findings from patent US20110245153A1 are described below.

For the assay, the target named is Staphylococcal enterotoxin B (Staphylococcus aureus) (UniProt P01552).
Chain of UniProt P01552 (P01552 28-266 limits assumed): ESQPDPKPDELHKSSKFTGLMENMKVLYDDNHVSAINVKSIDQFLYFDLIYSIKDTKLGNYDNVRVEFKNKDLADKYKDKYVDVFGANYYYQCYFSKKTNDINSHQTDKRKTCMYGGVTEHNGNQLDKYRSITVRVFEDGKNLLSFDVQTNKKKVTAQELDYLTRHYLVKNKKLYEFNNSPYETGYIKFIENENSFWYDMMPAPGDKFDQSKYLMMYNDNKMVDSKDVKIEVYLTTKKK

Regarding Vβ8 CDR2 mutant EGIGYITK (TCR), the Kd was 5 nM.
